# Results: patent US20070258954A1
# Target: fluorogenic OmpT peptide substrate (FIG. 10)
# Assay: cell-based or functional assay
substance,measurement,value
"OmpT protease of E. coli, expressed from multicopy plasmid pML19 in UT5600 cells (from UniProt P09169 21-317) (enzyme)",mean fluorescence intensity of cells by FACS after 10 min exposure to the substrate,30 fold
